Reference: the nanobody polyreactivity screen of Harvey et al. (2022)

Assay: yeast display, Sf9 membrane polyspecificity reagent, FACS + sequencing; frameworks hold sequencing errors
Method in brief: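 Synthetic nanobody libraries on Saccharomyces cerevisiae BJ5465 were galactose-induced for 36–48 hours, stained 1 hour at 4 °C with 10% biotinylated, detergent-solubilized Sf9 membrane reagent and enriched on streptavidin microbeads. FACS then separated cells into low and high (top ~1%) gates by anti-HA (expression) and streptavidin (reagent binding) fluorescence. Genes were colony-PCR amplified, MiSeq 2 × 250 sequenced and CDR-length filtered. A clone's polyreactivity label is that of its gate of origin.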

Sequence	polyreactivity (PSR sort gate)
QVQLVESGGGLVQAGGSLRLSCAASGSIFYLYAMGWYRQAPGKERELVAAISESGSTTYYADSVKGRFTISRDNAKNTVYLQMNSLKPEDTAVYYCARLGTYTVVTYDYWGQGTQVTVSS	low polyreactivity
QVQLVESGGGLVQAGGSLRLSCAASGIIIYKYAMGWDRQAPGTERELVAAITSGGGRTYYADSVKGRFTISRDNAKNTVYLQMNSLKPEDTAVYYCAATRPATYAAYDYWGQGTQVTVSS	high polyreactivity
QVQLVESGGCLVQAGGSLRLSCAASGSIFVSYAMGWYRQAPGTERELVAAITGRTGSTYYADSVKGRFTISRDNAQNTVYLQMNSLKPEDTEVYYCAARHKPHHRYDYWGQGTQVTVSS	low polyreactivity
QVQLLESGGGLVQAGGSLRLSCAASGIIVSYAMGWYRQAPGKERELVAAIRYSGDSTYYADSVKGRFTISRDNAKNTVYLQMNSLKPEDTAVYYCAATKGWSRYEYWGQGTQVTVSS	low polyreactivity
QVQLVESGGGLVQAGGSLRLSCAASGNIFSFYAMGWYRQAPGKERELVAAINWSGGDTYYADSVKGRFTISRDNAKNTVYLQMNSLKPEDTAVYYCAAEYYYQYYPGGYDYWGQGTQVTVSS	high polyreactivity
QVQLLESGGGLVQAGGSLRLSCAASGRIFGRYAMGWYRQAPGKERELVAAISSGGRTNYADSVKGRFTISRDNAKNTVYLQMNSLKPEDTAVYYCAARAYTYQAQSNYWGQGTQVTVSS	high polyreactivity
QVQLVESGGGLVQAGGPLRLSCAASGRIFWPYTMGWYRQTPGKERELVAVITYSGGSTYYADSVKGRFTISRDNAKNTVYFQMNSLKPEDTAVYYCNAGIRFYLHAHGYYWGQGTQVTVSS	high polyreactivity
QVQLVESGGGLVQAGGSLRLSCAASGFIFPAYAMGWYRQAPGKEMALVAAITSGGSTNYADSVKGRFTISRDNAKNTVYLQMNSLKPEDTAVYYCAADFDSILSVRSYRSRWYDYWGQGTQVAVSS	low polyreactivity
QDQLVESGGGLVQAGGSLRLSCAASGSTFTYYAMGWYRQAPGKERELVAAIRNSDGTTYYADSVKGRFTLSRDTAKFTVYLQMNSLKPEDTAVYYCAAGPRGRWSTYDYWGQGTQVNVSS	low polyreactivity
QVQLVESGVGLVQAGGSLRLSWAATGSIFPYNDLGWYRKAPGKERELVAAISDSAGTTYYADSVKGRFTISRDNAKNTVDLQMNSLKPEDTAGYYCAADSWDSQVVSYEYWGQGTQVTLSS	low polyreactivity
QVQLVESGGGLVQAGGSLRLSCAASGRIFNAYAMGWYRQAPGKERELVAAISSIGGRTYYADSVKGRFTISRDNAKNTDYLQMNSLKPEDTAVYYCAASRRSRQYRYDYWGQGTQVTVSS	high polyreactivity
QVQLVESGGGLVQAGGSLRLSCAASGSIFHHNAMGWYRQAPGKERELVAAISSRSGNTYYADSVKGRFTISRDNAKNTVYLQMNSLKPEDTAVYYCAAGKRLSYSTYDSWGQGTQVTVSS	high polyreactivity
QLQLVESGGGLVQAGGSLRLSCAASGRIFKFNAMGWYRQATGKERELVARITWRGGSPYYADSVKGRFTISRDNAKNTVYLQLNSLKPEDTAVYDCATYTPWTRFYSGTEVGYWGQGTQVTVSS	high polyreactivity
QVQVVESGGGLVQPGCSLRLSCAASGNIFVYNDMGWYRQAPGKERELVAAIDSGGSTYYADSVKGRFTISRDNAKNNVYLKMNSLKQEDTAVYYCAADYYCTYRTIYYYWGQGTQVTVSS	low polyreactivity
QVQLVESGGGLVQAGGSLRLSCAASGLTFYYYAMGWYRQAPGKERELVATISGSGGNTYYADSVKGRFTISRDNAKNTVFLQMNSLKPEDTAVYYCNARYRWWLYYSRDRVYYWGQGTQVTVSS	high polyreactivity
QVQLVVSGGGLVQAGGSLRLSCAASGSTLVIYAMGGYRQAPGKERELVAAIRRTGGSTYYADSVKGRFTISRDNAKTTVDLQKNSLKPEDTAVYYCAKRSYTGYEYWGQGTQETVSS	low polyreactivity
QVQLVESGGGLVQPGGSLRLSCAASGFILYGNAMGWYRQAPGKERELVAAISRRGGSTYYADSVKGRFTISRDNAKNTVYLQMNSLKPEDTAVYYCAKDGPGGGTRIYDYWGQGTQVTVSS	high polyreactivity
QVQLVESGGGLVQAGGSLRLSCAASGIIFGYYSMGWYRQAPGKERDLVAAITWSGGSTYYADSVKGRFTISRDYAKNTVYLQMNSLKPEDTAVYYCNALGWYGDYDYWGQGTQVTVSS	low polyreactivity
QVQLVESGGGLVQAGGSLRLSCAASGRIFKYYAKGWYRQAPGKERELVAAITSSGVSTYADSVKGRFTISRDNAKNTVYLQMNSLKPEDTAVYYCAADYVREGLGYDYWGQGTQVTVSS	low polyreactivity
QVQLVESGGGLVQAGGSLRLSCAASGRILGVYVMGWYRQAPGKERELVAAISGGGRTNYADSVKGRFTISRDNAKNTVYLQMNSLKPEDTAVYYCNAERPYQYYPGIYRWYYYWGQGTQVTVSS	low polyreactivity
QVQLVESGGGLVQAGGSLRLSCAASGRTFGYNAMGWYRQAPGKERELVASISYRGGSTYYADSVKGRFTISRDNAKNTVYLQMNSLKPEDTAVYYCNKYYVWREYYWGQGTQVTVSS	high polyreactivity
QVQLVESGGGLVQAGGSLRLSCAASGFTFGSYAMGWYRQAPGKDRELVAAISSNGGNTYYADSVKGRFTISRDNAKNTVYLQMNSLKPEDTAVYYCARDRQSRSLLEYDFWGQGTQVTVSS	high polyreactivity

Sequence	polyreactivity (PSR sort gate)
QVQLVESGGGLVQAGGSLRLSCSASGSTFGRYAMGWYRQAPGKERELVAAISARGGSTYYADSVKGRFTISRDNAKNTVYLQMNSLKPEDTAVYYCNVDYLLHGGRFDYWGQGTQVTVSS	high polyreactivity
QVQLVESGGGLVQAGGSLRLSCAASGSTFGTNAMGWYRQAPGKERELVAAISVSSTYYADSVKGRFTISRDNAKNTVYLQMNSLKPEDTAVYYCAADNSYGYRLDYWGQGTQVTVSS	low polyreactivity
QVQLVESGGGLVQAGGSLRLSCPASGSIFYSYAMGWYRQAPGKERELVAAISWDASTYYADSVKGRFTISRDNAKNTVYLQMNSLKPEYTAVYYCNAVYRVWYAEWSTVGSPHDYWGQGTQVTVSS	low polyreactivity
QVQLVESGGGLVQAGGSLRLSCAASGPIFYRYAMGWYRQAPGKERELVAAISRGGRTYYADSVKGRFTISRDNAKNTVYLQMNRLKPEDTAVYYCATTYSLGSWGYDYWGQGTQVTVSS	high polyreactivity
QVQRVESGGGLVQAGGSLRLSCAASGSIFSIYAMGWNRQAPGKEMEFVAAIDSGTSTTYADSVKGRFTISRDNAKNTVYLQMNSLKPEDTAVYYCAAALYSDVAAVSTYGYYWGQGTQVTVSS	low polyreactivity
QVQLVESGGGLVQAGGSLRLSCAASGSIFLWNAMGWYRQAPGKEREFVASITSRGGSTYYADSVKGRFTISRDNAKNTVYLQMNSLKPEDTAVYYCAAVRSKYWYYQGGYSSYGYWGQGTQVTVSS	high polyreactivity
QVQLVESGGGLVQAGGSLRLSCAASGFIFGNYAMGWYRQAPGKERELVATITRRGGRTYYADSVKGRFTISRDNAKNTVYLQMNSLKPEDSAVYYCNARPSRWAREGYWGQGTQVTVSS	high polyreactivity
QVQLVESGGGLVQAGGSLRLSCAASGIIFYYYAMGWYRQAPGKERELVASISRSGTDTYYADSVKGRFTISRDTAKNTVYLQMNSLKPEDTAVYYCAARGYYRWAAYADWRFNYWGQGTQVTVSS	high polyreactivity
QVQLVESGAGLVQAGGSLRLSCAASGLTFALYAMGGYRQAPGKERELVAAIDWSGGITYYADSVKGRFTISRDNAKNTVYLQLNSLKPEDTAVYYCAARPSTFKYKYGYWGQGTQVTVSS	high polyreactivity
EEELVESGGGLVQAGGSLRLSCAASGRTFVYNAMGWYRQAPGTERELVAAITSGDSTYYADSVKGRFTISRDNAKNTVYLQMNSLKPEDTAVYYCATDYSGIFYWYDYWGQGTQVTVSS	low polyreactivity
QFHLVESGGGLFQAGGSLRISCAASGRTLLVNAMGWYRQAPGKERELVAVITRGGSTNYADSVKGRFTISRDNAKNTVYLQMNSLKPEDTAVYYCAKQFSPYRSYGPVVRYDYWGQGTQVTVSS	low polyreactivity
QVQLVESGGGLVQAGGSLRLSCAASGRTFVRYTMGWYRQAPVKERELVATISYNGGRTYYADSVKGRFTISRDNAKNTVYLQMNSLKPEDTAVYYCATRLPKSSLHDYWGQGTQVTVSS	high polyreactivity
QVQHVESGGGLVQAGGSLRLSCAASGRTFRYNAMGWSRQAPGKERELVAAISSGDRTNYADSVKGRFTISRDNAKYTVYLQMYSLKPEDTAVYYCAAQTDSYYDFDYWGQGTQVTVSS	low polyreactivity
QVQLVESGGGLVQAGGSLRLSCAASGSTFYPYDMGWYRQAPGKERELVATMTSTGGSTNYADSVKGRFTISRDNAKNTVYLQMNSLKPEDTAVYYCAKDWNDDQHSWDTPFDYWGQGTQVTVSS	low polyreactivity
QVQLVESGGGLVQAGGSLRLSCAASGSIFRYYAMGWYRQAPGKEREFVAAITRSGGSTTYADSVKGRFTISRDNAKNTVYLQMNSLKPEDTAVYYCNAKSSRFQVFNYGYWGQGTQVTVSS	high polyreactivity
QVQLVESGGGLVQAGGSLRLSCAASGITFYHYAMGWYRQAPGKERELVAAITRSGGRTYYADSVKGRFTISRDNAKNTVFLQMNSLKPEDTAVYYCATDDRQGYFRSPREYDYWGQGTQVTVSS	high polyreactivity
QVQLVESGGGLVQAGGSLRLSCAASGSTFGPYAMGWYRQAHGKVRELVAAITESGDSTYYADSVKGRFTISRDNAKNTVYLQMNSLKPEDTAVYYCAAEFYGDKMDYWGQGTQVTVSS	low polyreactivity
QVQLVESGGGLVQAGGSLRLSCAASGRTFPFYAMGWYRQAPGKERELVADITSSGGSTYYADSVKGRFTISRDNAKNTVYLQMNSLKPEDTAVYFCNSFRGAQGSDAYDWGQGTQVTVSS	low polyreactivity
QVQLVESGGGLVQAGGSLRLSCAASGSIFWYNAMGWYRQAPGKERELVAAIRWRGGSTYYADSVKGRFTISRDNAKNTVYVQMSSLKPEDTAVYYCAAQVYVSQLYTSYYYWGQGTQVTVSS	high polyreactivity
QGQLVESGGGLLQAGGSLRLISAASGSTFPIYAMGWYRHAPRKERELVAAITWRGGSRKYYADSVKGRYTISRDNAKNTVYLQMNCLKPEDTAVYYCAAEYKWPLYGYWGQGTQVTVSS	low polyreactivity
QVQLVESGGGLVQAGGSLRLSCAASGRTFRAYALGWYRQAPGKERELVAAITSGGSTKYADSVKGRFTISRDNAKNTVYLQMNSLKPEDTAVYYCNARVRVRLGRNWSSYYYWGQGTQVTVSS	high polyreactivity
